Measurements published in patent US20230406950A1 (LYVGEN BIOPHARMA, published 2023).

B1: Ly1630 (antibody, V domains shown)
VH: QVQLVQSGAEVKKPGASVKVSCKASGYTFAGFEMHWVRQAPGQGLEWMGAIDPKTGGTDYNQKFKDRVTMTRDTSISTAYMELSRLRSDDTAVYYCARDLGYFDVWGQGTLVTVSS
VL: DIQMTQSPSSLSASVGDRVTITCRASQDIRSNLNWYQQKPGGAVKLLIYYTSRLHSGVPSRFSGSGSGTDYTLTISSLQPEDFATYFCQQSEKLPRTFGGGTKVEIR
notes: Humanized anti-CD137 antibody; also called parent anti-CD137 antibody clone Ly1630; CD137 parental antibody Ly1630
B2: Ly076 (antibody, V domains shown)
VH: QVQLVQSGAEVKKPGASVKVSCKASGYTFTDFWMSWVRQAPGQGLEWMGQIYPNTGTTHSNEKFKGRVTMTRDTSTSTVYMELSSLRSEDTAVYYCARSYHISTTPNWFAYWGQGTLVTVSS
VL: DIQMTQSPSSLSASVGDRVTITCKASQNVYKKLEWYQQKPGKVPKVLIYHTNILQTGVPSRFSGSGSGTDYTLTISSLQPEDVATYYCYQWNSGPTFGGGTKVEIK
notes: Humanized anti-PD-L1 parent; also called anti-PD-L1 antibody Ly076

Tests used:
[1] = molecular target: T1, human PD-1 expressed on cells (human, UniProt Q15116 25-288); experiment: flow cytometry (FACS), MFI, CHO cells expressing human PD-1
T1 construct: whole, on cells; also called human PD-1 over-expressed on the CHO cells; Jurkat/NFkB-Luci/PD-1 cells
Method in brief: (§1)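 Viable CHO cells, 2×10⁶ cells/mL in PBS with 2% BSA, incubated with bispecific antibodies for 2 h at 4° C. Bound antibody detected with fluorochrome-conjugated anti-IgG, 1 h at 4° C. Read-out is mean fluorescence intensity by flow cytometry.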

[2] = molecular target: T2, human CD137 expressed on cells (human, UniProt Q07011 24-255); experiment: flow cytometry (FACS), MFI, CHO cells expressing human CD137
T2 construct: whole, on cells; also called 4-1BB; TNFRSF9
Method in brief: as §1

[3] = molecular target: T2, human CD137 expressed on cells; experiment: FACS on CHO cells expressing human CD137 (MFI)
Method: (§2) Anti-OX40/CD137 bi-specific antibodies were analyzed by FACS for their binding properties to human OX40 and/or human CD137 expressed on CHO cells. Briefly, cultured cells were harvested, counted and cell viability was evaluated using the Trypan Blue exclusion method. Viable cells were then adjusted to 2×10⁶ cells per mL in PBS containing 2% BSA. 100 μL of this cell suspension were further aliquoted per well into a V-bottom 96-well plate. […] After incubation for 2 hours at 4° C., cells were centrifuged (3 min, 1000×g), washed with 250 μL/well BSA-containing FACS Stain Buffer, resuspended and incubated for an additional 1 hour at 4° C. with 100 μL/well fluorochrome-conjugated anti-IgG antibody for detection of the bisepecific antibody. Cells were then washed with 250 μL/well BSA-containing FACS Stain Buffer, resuspended in 100 μL/well FACS Stain Buffer, acquired and analyzed using a FACS machine. Binding of the bispecific antibodies to human OX40 or human CD137 expressing CHO cells were evaluated and the mean fluorescence intensity is plotted in histograms or dot plots.

[4] = molecular target: T3, human PD-L1 expressed on cells (human, UniProt Q9NZQ7 19-290); experiment: flow cytometry (FACS), MFI, CHO cells expressing human PD-L1
T3 construct: whole, on cells; also called human PD-L1 expressed on CHO cells; Raji-PD-L1 cells
Method: as §2, with “Exemplary anti-PD-1/CD137” for “Anti-OX40/CD137”, “PD-1” for “OX40”, “1000× g),” for “1000×g),”
(§3) Exemplary anti-PD-L1/CD137 bi-specific antibodies were analyzed by FACS for their binding properties to human PD-L1 or human CD137 expressed on CHO cells, following the procedures disclosed in Examples 1 above.

[5] = molecular target: T2, human CD137 expressed on cells; experiment: FACS on CHO cells expressing human CD137 (MFI); remark: listed apart in the source
Method: as §2

[6] = molecular target: T2, human CD137 expressed on cells; experiment: FACS on CHO cells expressing human CD137 (MFI); remark: listed apart in the source
Method: as §2, with “Anti-GITR/CD137” for “Anti-OX40/CD137”, “GITR” for “OX40”, “1000× g),” for “1000×g),”

[7] = molecular target: T2, human CD137 expressed on cells; experiment: FACS on CHO cells expressing human CD137 (MFI); remark: listed apart in the source
Method: as §2, with “Anti-CD40/CD137” for “Anti-OX40/CD137”, “CD40” for “OX40”

[8] = molecular target: T2, human CD137 expressed on cells; experiment: FACS on CHO cells expressing human CD137 (MFI); remark: listed apart in the source
Method: as §2, with “Anti-CD40/CD137” for “Anti-OX40/CD137”, “CD40” for “OX40”

[9] = molecular target: T2, human CD137 expressed on cells; experiment: FACS on CHO cells expressing human CD137 (MFI); remark: listed apart in the source
Method: as §2, with “Anti-GITR/CD137” for “Anti-OX40/CD137”, “GITR” for “OX40”, “1000× g),” for “1000×g),”

[10] = molecular target: T2, human CD137 expressed on cells; experiment: flow cytometry (FACS), MFI, CHO cells expressing human CD137; remark: listed apart in the source
Method: as §2, with “Exemplary anti-PD-1/CD137” for “Anti-OX40/CD137”, “PD-1” for “OX40”, “1000× g),” for “1000×g),”
as §3

T2 sequence (Q07011 24-255): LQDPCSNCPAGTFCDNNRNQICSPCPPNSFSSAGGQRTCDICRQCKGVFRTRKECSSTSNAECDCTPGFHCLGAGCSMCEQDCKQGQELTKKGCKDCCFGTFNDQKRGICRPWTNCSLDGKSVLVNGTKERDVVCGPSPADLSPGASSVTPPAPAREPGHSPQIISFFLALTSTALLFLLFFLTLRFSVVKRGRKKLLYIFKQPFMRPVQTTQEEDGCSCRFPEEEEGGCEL
T3 sequence (Q9NZQ7 19-290): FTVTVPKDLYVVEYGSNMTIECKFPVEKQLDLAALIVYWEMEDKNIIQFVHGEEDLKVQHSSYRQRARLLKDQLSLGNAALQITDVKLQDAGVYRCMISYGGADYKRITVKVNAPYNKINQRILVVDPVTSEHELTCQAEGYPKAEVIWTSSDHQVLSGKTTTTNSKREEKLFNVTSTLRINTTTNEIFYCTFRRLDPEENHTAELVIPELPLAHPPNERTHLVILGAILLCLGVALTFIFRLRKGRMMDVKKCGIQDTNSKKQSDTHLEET
T1 sequence (Q15116 25-288): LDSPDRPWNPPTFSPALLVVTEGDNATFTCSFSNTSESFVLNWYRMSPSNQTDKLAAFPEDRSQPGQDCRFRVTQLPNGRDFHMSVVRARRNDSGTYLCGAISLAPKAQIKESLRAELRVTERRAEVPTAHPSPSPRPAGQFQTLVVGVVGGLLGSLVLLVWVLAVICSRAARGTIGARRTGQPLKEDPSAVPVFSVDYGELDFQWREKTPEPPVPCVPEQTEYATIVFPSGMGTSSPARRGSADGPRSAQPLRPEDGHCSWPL

Row | Binder | binding result [1] | EC50 (read off the curve) [2] | EC50 (read off the curve) [3] | binding result [4] | EC50 (read off the curve) [5] | EC50 (read off the curve) [6] | EC50 (read off the curve) [7] | EC50 (read off the curve) [8] | EC50 (read off the curve) [9] | binding result [10]
1 | B1 | no binding (tested: 10 ug/ml) | ~0.05 mg/L | ~0.09 mg/L | no binding (tested: 10 ug/ml) | ~0.1 mg/L | ~0.1 mg/L | ~0.03 mg/L | ~0.03 mg/L | ~0.1 mg/L | –
2 | B2 | – | – | – | binds | – | – | – | – | – | no binding (tested: 10 ug/ml)
